{
  "source": "paper PMC9282234",
  "binders": {"B1": {"name": "FUS-SNAP, P35637 1-526 (natural protein)", "chain": "MASNDYTQQATQSYGAYPTQPGQGYSQQSSQPYGQQSYSGYSQSTDTSGYGQSSYSSYGQSQNTGYGTQSTPQGYGSTGGYGSSQSSQSSYGQQSSYPGYGQQPAPSSTSGSYGSSSQSSSYGQPQSGSYSQQPSYGGQQQSYGQQQSYNPPQGYGQQNQYNSSSGGGGGGGGGGNYGQDQSSMSSGGGSGGGYGNQDQSGGGGSGGYGQQDRGGRGRGGSGGGGGGGGGGYNRSSGGYEPRGRGGGRGGRGGMGGSDRGGFNKFGGPRDQGSRHDSEQDNSDNNTIFVQGLGENVTIESVADYFKQIGIIKTNKKTGQPMINLYTDRETGKLKGEATVSFDDPPSAKAAIDWFDGKEFSGNPIKVSFATRRADFNRGGGNGRGGRGRGGPMGRGGYGGGGSGGGGRGGFPSGGGGGGGQQRAGDWKCPNPTCENMNFSWRNECNQCKAPKPDGPGGGPGGSHMGGNYGDDRRGGRGGYDRGGYRGRGGDRGGFRGGRGGGDRGGFGPGKMDSRGEHRQDRRERPY"}},
  "key": {"FUS-SNAP, P35637 [1]": {"target": "T1, FUS-SNAP, P35637", "T1 chain": "B1 chain", "assay": "dynamic light scattering", "settings": "remark: other sources report otherwise"}, "FUS-SNAP, P35637 [2]": {"target": "T1, FUS-SNAP, P35637", "assay": "nanoparticle tracking analysis", "settings": "remark: other sources report otherwise"}},
  "data": [
    {"binder": "B1", "values": [
      {"measurement": "stoichiometry N (molecules per cluster)", "setting": "FUS-SNAP, P35637 [1]", "result": "< 10"},
      {"measurement": "percent of the protein molecules in mesoscale clusters (250 nM FUS-SNAP)", "setting": "FUS-SNAP, P35637 [2]", "result": 0.15, "unit": "%"}
    ]}
  ]
}
